The test addresses T1, CP of tomato brown rugose fruit virus (genus Tobamovirus) (Tomato brown rugose fruit virus, UniProt A0A0S2SZX3 2-159).
T1 construct: also called ToMMV (as printed for this virus)
T1 sequence: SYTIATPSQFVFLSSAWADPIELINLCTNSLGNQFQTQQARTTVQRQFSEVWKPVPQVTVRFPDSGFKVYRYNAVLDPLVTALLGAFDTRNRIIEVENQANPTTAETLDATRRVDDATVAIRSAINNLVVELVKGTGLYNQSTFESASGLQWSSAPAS
The experiment in a line: dot blot; also Western blot and ELISA. On the technique in general: Immunoblotting shows a protein as a band on a membrane.

B1: monoclonal antibody C1 (antibody, V domains shown)
VH: EVQLQQSGAELVRPGALVKLSCKASGFNIKDYYMHWVKQRPEEGLEWIGWIDPENGNTIYDPKFQGKASITADTSSNTVRLQLSSLTSEDTAVYYCARERGAYWGQGTLVTVSA
VL: QIVLTQSPAIMSASPGEKVTMTCSASSSVSYMYWFQQKPGSSPRLLIYDTSNLASGVPVRFSGSGSGTSYSLTISRMEAEDAATFYCQQWSSYPLTFGAGTKLELK
notes: also called MAb C1
Turning to B1, the binding result is on record as “no binding”.

B2: monoclonal antibody N1 (antibody, V domains shown)
VH: EVQLVESGGGLVQPGGSLKLSCAASGFTFSSYGMSWVRQSPDKRLEWVATINNNGGSTYYPDSVKGRFTISRDNAKNTLYLQMSSLKSEDTAVYYCARDAAFDCWGQGTTLTVSS
VL: DIVMSQSPSSLAVSAGEKVTMSCKSSQSLLNSRTRKNYLAWYQQKPGQSPKLLIYWASTRESGVPDRFTGSGSGTDFTLTISSVQAEDLAVYYCKQSYNLFTFGSGTKLEIK
notes: also called MAb N1
Consider B2, for which the binding result is “no binding”.

B3: monoclonal antibody M1 (antibody, V domains shown)
VH: QVQLQQSGPELVRPGASVKMSCKTSGYPFSTYWMHWVKQRPGQGLEWIGMIKPSNSETSLNQKFKDKATLNVDKSSNTAYMQLNSLTSEDSGVYYCARAGDSWGQGTTLTVSS
VL: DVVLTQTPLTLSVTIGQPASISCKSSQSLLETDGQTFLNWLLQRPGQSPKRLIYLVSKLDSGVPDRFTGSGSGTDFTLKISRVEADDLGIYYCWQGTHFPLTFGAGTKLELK
notes: also called MAb M1
Turning to B3, the binding result is on record as “no binding”.

B4: monoclonal antibody M3 (antibody, V domains shown)
VH: EVILVESGGGLVKPGGSLRLSCAASGFTFSSHPLSWVRQSPDKRLEWVASISSGGRYTYYPDSVKGRLTISRDNAKNILYLHMNSLRSEDTAMYYCARRGSTATAWFAYWGQGTLVTVSA
VL: DIALTQSPASLAVSLGQRATISCKASQSVDYDGDSYMSWYQQKPGQPPKLLIYGASNLESGIPARFSGSGSGTDFTLNIHPVEEEDAATYYCQQSNEDLPTFGGGTKLEIK
notes: also called MAb M3
For the molecule B4, the binding result was “no binding”.

B5: monoclonal antibody M2 (antibody, V domains shown)
VH: EVQLVESGGGLVQPKGSLKLSCAASDFTFNTHSMNWVRQAPGKVLEWIARIRSQSNNYATYYADSVKDRFTISRDDSQNMFYLQMNNLKTEDTAMYYCAGDYYGPFAYWGQGTLVAVSA
VL: DVLMTQTPLSLPVSLGDQASISCRSGQSLVHSNGNTYLHWYLQKPGQSPKLLIYKVSNRFSGVPDRFSGSGSGTDFTLKISRVEAEDLGVYFCSQSTHVPWTFGGGTKLEIK
notes: also called MAb M2
B5: the binding result was “no binding”.

The values above are taken from patent US20240239872A1 (SHANDONG AGRICULTURAL UNIVERSITY, published 2024).
